Experimental data as given in US20160272683A1 (Novo Nordisk, published 2016).
* marks the point of attachment. C20 diacid = O=C(O)CCCCCCCCCCCCCCCCCCC(=O)*; C18 diacid = O=C(O)CCCCCCCCCCCCCCCCC(=O)*

T1: human calcitonin receptor (human, UniProt P30988 25-474)
T1 construct: whole, on cells; also called hCT-R; hCTR
T1 sequence (looked up): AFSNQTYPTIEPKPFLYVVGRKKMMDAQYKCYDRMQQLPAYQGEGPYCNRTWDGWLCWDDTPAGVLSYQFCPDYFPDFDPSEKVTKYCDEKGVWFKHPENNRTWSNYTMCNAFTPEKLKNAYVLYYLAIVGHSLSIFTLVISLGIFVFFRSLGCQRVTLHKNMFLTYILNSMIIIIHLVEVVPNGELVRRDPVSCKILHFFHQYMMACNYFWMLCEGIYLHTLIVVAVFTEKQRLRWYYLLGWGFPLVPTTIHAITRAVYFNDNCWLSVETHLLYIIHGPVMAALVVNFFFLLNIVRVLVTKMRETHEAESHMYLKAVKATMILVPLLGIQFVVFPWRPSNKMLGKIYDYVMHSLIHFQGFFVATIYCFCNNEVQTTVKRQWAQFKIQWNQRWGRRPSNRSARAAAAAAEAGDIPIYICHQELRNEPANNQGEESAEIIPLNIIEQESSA


The binders below were run against T1, human calcitonin receptor (assay: whole-cell competition vs 125I-human calcitonin (Assay VIIa)).
Procedure, shortened: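 BHK tk'ts 13 cells stably co-expressing human calcitonin receptor and a CRE-luciferase reporter, seeded overnight at 37 °C. Bound tracer counted by scintillation after cold HBSS washes and NaOH/SDS lysis; IC₅₀ from one-site competition fit taken as receptor affinity.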

IC50 [nM] | Binder
0.188 | {C20 diacid}-EASELSTAALGRLSAELHELATLPRTETGSGSP-NH2 (also called Ex. #22) [[N-terminal(C20 diacid), 30S, 31G]mimylin]
0.315 | {C18 diacid}-EASELSTAALGRLSAELHELATLPRTETGSGSP-NH2 (also called Ex. #21) [[N-terminal(C18 diacid), 30S, 31G]mimylin]
0.419 | {C18 diacid}-EASELSTAALGRLSAELHEIATLPRTETGPESP-NH2 (SMILES CC[C@H](C)[C@H](NC(=O)[C@H](CCC(=O)O)NC(=O)[C@H](Cc1c[nH]cn1)NC(=O)[C@H](CC(C)C)NC(=O)[C@H](CCC(=O)O)NC(=O)[C@H](C)NC(=O)[C@H](CO)NC(=O)[C@H](CC(C)C)NC(=O)[C@H](CCCNC(=N)N)NC(=O)CNC(=O)[C@H](CC(C)C)NC(=O)[C@H](C)NC(=O)[C@H](C)NC(=O)[C@@H](NC(=O)[C@H](CO)NC(=O)[C@H](CC(C)C)NC(=O)[C@H](CCC(=O)O)NC(=O)[C@H](CO)NC(=O)[C@H](C)NC(=O)[C@H](CCC(=O)O)NC(=O)CCCCCCCCCCCCCCCCC(=O)O)[C@@H](C)O)C(=O)N[C@@H](C)C(=O)N[C@H](C(=O)N[C@@H](CC(C)C)C(=O)N1CCC[C@H]1C(=O)N[C@@H](CCCNC(=N)N)C(=O)N[C@H](C(=O)N[C@@H](CCC(=O)O)C(=O)N[C@H](C(=O)NCC(=O)N1CCC[C@H]1C(=O)N[C@@H](CCC(=O)O)C(=O)N[C@@H](CO)C(=O)N1CCC[C@H]1C(N)=O)[C@@H](C)O)[C@@H](C)O)[C@@H](C)O, also called Ex. #12) [[N-terminal(C18 diacid), 20I]mimylin]
1.17 | {C18 diacid}-EASELSTAALGRLSAELHELATLPRTETGPEHP-NH2 (SMILES CC(C)C[C@H](NC(=O)[C@H](C)NC(=O)[C@H](C)NC(=O)[C@@H](NC(=O)[C@H](CO)NC(=O)[C@H](CC(C)C)NC(=O)[C@H](CCC(=O)O)NC(=O)[C@H](CO)NC(=O)[C@H](C)NC(=O)[C@H](CCC(=O)O)NC(=O)CCCCCCCCCCCCCCCCC(=O)O)[C@@H](C)O)C(=O)NCC(=O)N[C@@H](CCCNC(=N)N)C(=O)N[C@@H](CC(C)C)C(=O)N[C@@H](CO)C(=O)N[C@@H](C)C(=O)N[C@@H](CCC(=O)O)C(=O)N[C@@H](CC(C)C)C(=O)N[C@@H](Cc1c[nH]cn1)C(=O)N[C@@H](CCC(=O)O)C(=O)N[C@@H](CC(C)C)C(=O)N[C@@H](C)C(=O)N[C@H](C(=O)N[C@@H](CC(C)C)C(=O)N1CCC[C@H]1C(=O)N[C@@H](CCCNC(=N)N)C(=O)N[C@H](C(=O)N[C@@H](CCC(=O)O)C(=O)N[C@H](C(=O)NCC(=O)N1CCC[C@H]1C(=O)N[C@@H](CCC(=O)O)C(=O)N[C@@H](Cc1c[nH]cn1)C(=O)N1CCC[C@H]1C(N)=O)[C@@H](C)O)[C@@H](C)O)[C@@H](C)O, also called Ex. #18) [[N-terminal(C18 diacid), 32H]mimylin]

More lines, now with the values behind:

Binder | IC50 [nM]
{C18 diacid}-EASELSTAVLGRLSAELHELATLPPTETGPESP-NH2 (SMILES CC(C)C[C@H](NC(=O)[C@H](CCC(=O)O)NC(=O)[C@H](Cc1c[nH]cn1)NC(=O)[C@H](CC(C)C)NC(=O)[C@H](CCC(=O)O)NC(=O)[C@H](C)NC(=O)[C@H](CO)NC(=O)[C@H](CC(C)C)NC(=O)[C@H](CCCNC(=N)N)NC(=O)CNC(=O)[C@H](CC(C)C)NC(=O)[C@@H](NC(=O)[C@H](C)NC(=O)[C@@H](NC(=O)[C@H](CO)NC(=O)[C@H](CC(C)C)NC(=O)[C@H](CCC(=O)O)NC(=O)[C@H](CO)NC(=O)[C@H](C)NC(=O)[C@H](CCC(=O)O)NC(=O)CCCCCCCCCCCCCCCCC(=O)O)[C@@H](C)O)C(C)C)C(=O)N[C@@H](C)C(=O)N[C@H](C(=O)N[C@@H](CC(C)C)C(=O)N1CCC[C@H]1C(=O)N1CCC[C@H]1C(=O)N[C@H](C(=O)N[C@@H](CCC(=O)O)C(=O)N[C@H](C(=O)NCC(=O)N1CCC[C@H]1C(=O)N[C@@H](CCC(=O)O)C(=O)N[C@@H](CO)C(=O)N1CCC[C@H]1C(N)=O)[C@@H](C)O)[C@@H](C)O)[C@@H](C)O, also called Ex. #31) [[N-terminal(C18 diacid), 9V, 25P]mimylin] | 0.506
{C18 diacid}-EASELSTAVLGRLSAELHELATLPRTEPGPESP-NH2 (SMILES CC(C)C[C@H](NC(=O)[C@H](CCC(=O)O)NC(=O)[C@H](Cc1c[nH]cn1)NC(=O)[C@H](CC(C)C)NC(=O)[C@H](CCC(=O)O)NC(=O)[C@H](C)NC(=O)[C@H](CO)NC(=O)[C@H](CC(C)C)NC(=O)[C@H](CCCNC(=N)N)NC(=O)CNC(=O)[C@H](CC(C)C)NC(=O)[C@@H](NC(=O)[C@H](C)NC(=O)[C@@H](NC(=O)[C@H](CO)NC(=O)[C@H](CC(C)C)NC(=O)[C@H](CCC(=O)O)NC(=O)[C@H](CO)NC(=O)[C@H](C)NC(=O)[C@H](CCC(=O)O)NC(=O)CCCCCCCCCCCCCCCCC(=O)O)[C@@H](C)O)C(C)C)C(=O)N[C@@H](C)C(=O)N[C@H](C(=O)N[C@@H](CC(C)C)C(=O)N1CCC[C@H]1C(=O)N[C@@H](CCCNC(=N)N)C(=O)N[C@H](C(=O)N[C@@H](CCC(=O)O)C(=O)N1CCC[C@H]1C(=O)NCC(=O)N1CCC[C@H]1C(=O)N[C@@H](CCC(=O)O)C(=O)N[C@@H](CO)C(=O)N1CCC[C@H]1C(N)=O)[C@@H](C)O)[C@@H](C)O, also called Ex. #32) [[N-terminal(C18 diacid), 9V, 28P]mimylin] | 3.35
{C18 diacid}-EASELSTAVLGRLSAELHELATLPRTETGPESP-NH2 (SMILES CC(C)C[C@H](NC(=O)[C@H](CCC(=O)O)NC(=O)[C@H](Cc1c[nH]cn1)NC(=O)[C@H](CC(C)C)NC(=O)[C@H](CCC(=O)O)NC(=O)[C@H](C)NC(=O)[C@H](CO)NC(=O)[C@H](CC(C)C)NC(=O)[C@H](CCCNC(=N)N)NC(=O)CNC(=O)[C@H](CC(C)C)NC(=O)[C@@H](NC(=O)[C@H](C)NC(=O)[C@@H](NC(=O)[C@H](CO)NC(=O)[C@H](CC(C)C)NC(=O)[C@H](CCC(=O)O)NC(=O)[C@H](CO)NC(=O)[C@H](C)NC(=O)[C@H](CCC(=O)O)NC(=O)CCCCCCCCCCCCCCCCC(=O)O)[C@@H](C)O)C(C)C)C(=O)N[C@@H](C)C(=O)N[C@H](C(=O)N[C@@H](CC(C)C)C(=O)N1CCC[C@H]1C(=O)N[C@@H](CCCNC(=N)N)C(=O)N[C@H](C(=O)N[C@@H](CCC(=O)O)C(=O)N[C@H](C(=O)NCC(=O)N1CCC[C@H]1C(=O)N[C@@H](CCC(=O)O)C(=O)N[C@@H](CO)C(=O)N1CCC[C@H]1C(N)=O)[C@@H](C)O)[C@@H](C)O)[C@@H](C)O, also called Ex. #9) [[N-terminal(C18 diacid), 9V]mimylin] | 0.736
{C18 diacid}-EASELSTAALGRLSAEIHELATLPRTETGPESP-NH2 (SMILES CC[C@H](C)[C@H](NC(=O)[C@H](CCC(=O)O)NC(=O)[C@H](C)NC(=O)[C@H](CO)NC(=O)[C@H](CC(C)C)NC(=O)[C@H](CCCNC(=N)N)NC(=O)CNC(=O)[C@H](CC(C)C)NC(=O)[C@H](C)NC(=O)[C@H](C)NC(=O)[C@@H](NC(=O)[C@H](CO)NC(=O)[C@H](CC(C)C)NC(=O)[C@H](CCC(=O)O)NC(=O)[C@H](CO)NC(=O)[C@H](C)NC(=O)[C@H](CCC(=O)O)NC(=O)CCCCCCCCCCCCCCCCC(=O)O)[C@@H](C)O)C(=O)N[C@@H](Cc1c[nH]cn1)C(=O)N[C@@H](CCC(=O)O)C(=O)N[C@@H](CC(C)C)C(=O)N[C@@H](C)C(=O)N[C@H](C(=O)N[C@@H](CC(C)C)C(=O)N1CCC[C@H]1C(=O)N[C@@H](CCCNC(=N)N)C(=O)N[C@H](C(=O)N[C@@H](CCC(=O)O)C(=O)N[C@H](C(=O)NCC(=O)N1CCC[C@H]1C(=O)N[C@@H](CCC(=O)O)C(=O)N[C@@H](CO)C(=O)N1CCC[C@H]1C(N)=O)[C@@H](C)O)[C@@H](C)O)[C@@H](C)O, also called Ex. #11) [[N-terminal(C18 diacid), 17I]mimylin] | 1.37
{C18 diacid}-EASELSTAALGRLSAELAELATLPRTETGPESP-NH2 (SMILES CC(C)C[C@H](NC(=O)[C@H](C)NC(=O)[C@H](C)NC(=O)[C@@H](NC(=O)[C@H](CO)NC(=O)[C@H](CC(C)C)NC(=O)[C@H](CCC(=O)O)NC(=O)[C@H](CO)NC(=O)[C@H](C)NC(=O)[C@H](CCC(=O)O)NC(=O)CCCCCCCCCCCCCCCCC(=O)O)[C@@H](C)O)C(=O)NCC(=O)N[C@@H](CCCNC(=N)N)C(=O)N[C@@H](CC(C)C)C(=O)N[C@@H](CO)C(=O)N[C@@H](C)C(=O)N[C@@H](CCC(=O)O)C(=O)N[C@@H](CC(C)C)C(=O)N[C@@H](C)C(=O)N[C@@H](CCC(=O)O)C(=O)N[C@@H](CC(C)C)C(=O)N[C@@H](C)C(=O)N[C@H](C(=O)N[C@@H](CC(C)C)C(=O)N1CCC[C@H]1C(=O)N[C@@H](CCCNC(=N)N)C(=O)N[C@H](C(=O)N[C@@H](CCC(=O)O)C(=O)N[C@H](C(=O)NCC(=O)N1CCC[C@H]1C(=O)N[C@@H](CCC(=O)O)C(=O)N[C@@H](CO)C(=O)N1CCC[C@H]1C(N)=O)[C@@H](C)O)[C@@H](C)O)[C@@H](C)O, also called Ex. #13) [[N-terminal(C18 diacid), 18A]mimylin] | 0.279
